For 1 substance, Kd and kon results are on record in patent US20230144436A1, “MUSCLE TARGETING COMPLEXES AND USES THEREOF FOR TREATING MYOTONIC DYSTROPHY” (Dyne Therapeutics, Inc., priority 2020, published 2023).

The target of this assay is human transferrin receptor 1 (human) (UniProt P02786). The assay can be described thus: Carterra LSA SPR array, IgG captured on anti-IgG lawn, hTfR1 as analyte, 25 C, 1:1 Langmuir fit.

As a reminder, the Kd is the constant that tells how readily two partners part at equilibrium. A lower Kd goes with a tighter complex. By kon is commonly meant a measure of how fast the partners come together. Low values mean slow association, high ones fast association.

Sequence of human transferrin receptor 1 (human) (P02786 89-760 limits assumed): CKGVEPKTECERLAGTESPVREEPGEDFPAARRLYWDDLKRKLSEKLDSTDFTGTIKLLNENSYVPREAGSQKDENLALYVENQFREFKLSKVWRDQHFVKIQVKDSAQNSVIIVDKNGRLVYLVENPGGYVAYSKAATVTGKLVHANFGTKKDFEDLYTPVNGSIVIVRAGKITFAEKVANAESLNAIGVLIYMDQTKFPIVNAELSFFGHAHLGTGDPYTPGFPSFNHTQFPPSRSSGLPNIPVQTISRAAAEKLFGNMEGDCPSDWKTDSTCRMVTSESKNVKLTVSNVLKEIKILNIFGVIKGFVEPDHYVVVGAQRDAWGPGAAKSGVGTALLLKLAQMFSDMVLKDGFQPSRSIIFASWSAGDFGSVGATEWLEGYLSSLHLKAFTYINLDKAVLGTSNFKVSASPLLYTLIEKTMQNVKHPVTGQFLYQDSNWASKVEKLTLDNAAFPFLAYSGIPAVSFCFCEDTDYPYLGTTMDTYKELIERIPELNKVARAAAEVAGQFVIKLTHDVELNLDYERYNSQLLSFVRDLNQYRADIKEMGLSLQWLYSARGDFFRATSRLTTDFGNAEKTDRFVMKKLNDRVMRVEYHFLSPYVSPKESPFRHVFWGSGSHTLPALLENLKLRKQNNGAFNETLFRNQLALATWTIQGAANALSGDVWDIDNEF

OKT9 (antibody) yielded a dissociation constant Kd of 536 pM and a kon of 774000 M⁻¹ s⁻¹.
